Results taken from IntAct's records for PubMed 21035448.

B1: Regulator of G-protein signaling 4 (Rattus norvegicus (Rat)), P49799 (parent)
chain: MCKGLAGLPASCLRSAKDMKHRLGFLLQKSDSCEHSSSHSKKDKVVTCQRVSQEEVKKWAESLENLINHECGLAAFKAFLKSEYSEENIDFWISCEEYKKIKSPSKLSPKAKKIYNEFISVQATKEVNLDSCTREETSRNMLEPTITCFDEAQKKIFNLMEKDSYRRFLKSRFYLDLTNPSSCGAEKQKGAKSSADCTSLVPQCA
partner: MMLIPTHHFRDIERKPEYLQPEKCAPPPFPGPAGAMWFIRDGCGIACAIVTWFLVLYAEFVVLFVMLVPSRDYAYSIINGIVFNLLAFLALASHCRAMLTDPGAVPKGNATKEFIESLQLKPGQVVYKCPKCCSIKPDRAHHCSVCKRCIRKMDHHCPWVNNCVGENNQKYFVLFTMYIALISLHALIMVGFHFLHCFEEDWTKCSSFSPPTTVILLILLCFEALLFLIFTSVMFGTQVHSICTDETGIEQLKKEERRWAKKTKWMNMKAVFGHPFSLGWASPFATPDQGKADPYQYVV

Variants of: B1
Conditions: with zdhc3_mouse Zdhhc3, Q8R173

Row | effect of a mutation on the interaction | Variant
1 | disrupting interaction | C2S
